Experiment: soluble on expression in E. coli; label from the status in PepcDB or PDB records
For “MGSDKIHHHHHHAQEERNQGIIWSYLHGWEYGIKAGFSIGGTSPLPLPEEIRKIDSYAPGGLAISIEGNATKWFDTKWGMTVGVRLENKNMTTEATVKNYGMKIINTNGGELQGLWTGGVKTKVKNSYLTIPVVANYKVSKRWKVSAGPYVSYLIERNFSGHVYEGHLRTPDQTGSRVDFTGESIATYDFSDNLRKFQWGLQLGGEWRAFKHLNVYADLTWGLNDIFKKDFDTISFAMYPIYLNIGFGYAF”, the “soluble on expression in E. coli” value was “not soluble”.
With “MGSDKIHHHHHHAQETIPDVEVSTMDMWVKETRSVSEYLNMPVLHFKDEQVYSETLRQLKNMTENERFTYFQQLGFEGAYILWEQADRELDKIFDMESDDSHLIQEMINTYKDKYSDIFSFNTVDLFDVTPYFTFTDNDLSLLGNIKGYVVIGNSLRGPKYDYPTYDLDEVVSATRAAEPTPIEPGFKGFKDASLTIKNGKYKSTMTIGRIVNGNSFAVEFKTKKKQLFWKKSVKAGYSAMLTMKSSKFNYKNTVFCPYGKEVSILNLPIERVGNVFDAVVENFKSSRGDAKGNQSFHNIRVI” the “soluble on expression in E. coli” value was “not soluble”.
In the case of “MGSDKIHHHHHHAQETLRENNGEPTLVERLSNGEIKINSAEMNFQLFTSANAEFVGNELDGMNFKLNRVRLEIKGDVGKWLGYHYRQSFNKYSDPYSLDNLSSSLELAYVNLKARPNLNFTIGKQFVNFGGYEYYVNSIRVREFSEFNNLLTAYQAGISGNWQVSPDHELCFQIVNNRNGNDEDIYPTGLPEGTAKAKIPFMYTVNWNSYYLDKSLQLRYATAVGQQTRKRYSYYFTCGNTYEKGPLLTYLDVMYTRQGIDQHGVVSRLPGTPHTAMNTEYLSIIGDVDYRVHPQWNVYVKGAYETARVYKGNGDFRKGMYRRSWNAQSSVEFFPFKQLDLFVFVLYTYRGVILEKAATRMGAIEPDTHRISLGLVYSIPVF”, the “soluble on expression in E. coli” value is reported as “not soluble”.
In the case of “MGSDKIHHHHHHAQTKSLHQLQQEFVDLRCGMFIHFNMPTFFNEDWPDPDAAPELFNPVRMDCKQWAKAAKSANMTYGCLTTKHHSGFCIWDTKTTDYSVMSSPFKRDVVKEYADAFRAEGMKVMLYYSILDTHARLRPKCITPQHIEMIKEQLRELLTNYGEITALIIDGWDAPWSRISYDDVPFEDIYRLVKSIQPNCLVMDLNAAKYPAEALFYTDIKSYEQGAGQHISKDTNRLPALSCLPLQQNWFWKESFPTTPVKSPAQMVNDNIIPMGKSYCNFILNVAPNRDGLMDANALKALKEIGKLWKNDGRVATVPEADAPIISSNIAKYQPAEGTWSSDYAIMDFANDDDFGTCWNSNPEVKVPWYSVTFEREKSFNMVVITDRNNDRLQEYRLEYRAGGTWKPLYEGKAPTGLRVKIHRFDTVWGDAVRMTVLNSNGTTSIAEFGVYCERR”, the “soluble on expression in E. coli” value is reported as “not soluble”.
In the case of “MGSDKIHHHHHHAQYNKVYADITANMLVDMGFENVIWSEDEKERVYVLENTPWRLQGVGLAHAIDRIQKTGLPEKGKSCRIVVLDNNIPQISLIYTANPDSLKAAPGSYAARSAWDATYDLGDSWDKVKKEYRMNSSLFKVDVVVYPELYLKNLIITQIYQVLFNLSPAIEVSFWNGMKLTAQMVFPIYNDGYGPWAGKIHPGMVTLSQSFRLPYRTFARASIGLFNADRYGVDLAVTHHLKDERFSLEGRIGCTGTGSWQKFEYHYGTHQRVTWSLGGSFYWPKYNTQVSLKAEQYLLGEIGGRIDLIRHFRYCSIGFYAMKAQGALKNGGFRFQVALPPYKYKRKNVRVLPSDNWGMSYNAGNERYYYKGYKASPNDNIMQQNQFNPYFIKSELLNF”, the “soluble on expression in E. coli” value is reported as “not soluble”.
In the case of “MGSDKIHHHHHHARIVYLNHCYPSPKVITYTDNDTIKLGNYEIKQTGWEWGDGSLLKEKCPDYAYDQTDDGSEYPFDSVRVGFITLSVTKVKDDTTSLDLTSLAFEMGTNGDQYDMELFFALNPTLEALEIKLNAGEDVSFVIPYIMDEQQVSKKDWSRVDKMKLYMVLQYYPQKIRLCCN”, the “soluble on expression in E. coli” value is reported as “not soluble”.
In the case of “MGSDKIHHHHHHASCEDDEVEYAPLAVTRVSTVLDREQGIDQANLAQYIIVQGTGLNAVNSILVNDVQVDLKDAYITSGEITFPIPRVIPGEINNLITLGSGNSTVTAPISVFIPELEVNGMFNEFTPAGDTMKVVGDYFDLYEITTESGQLFFGGKEVKITKSTGNSLSFVLPEDAVMGSKIKLVSPVCGEVTVPGKYMEKGNMLCDFDPFTGWGGSKYVIDGPVPAPYSGYFSRFKINKGDANDWDWNEVTTIAQCAVEYSPEVIADQNKYLLKFEVNTIKPLTKRQIRFYFSQINYDWEPFASGLALNTNGEWKTVSIDLGEMWKGDIPNDGVLQIMGNSWAEDTDICFDNFRIVPKD”, the “soluble on expression in E. coli” value is reported as “not soluble”.
For “MGSDKIHHHHHHATAPSPDFNEARFRNDIKILSSDAFEGRAPTTAGEKLTLDYLSTAFKAAGLKGTNNGSFLQSVPMVTYNASENQAIRLGNLHPAYRKDIVLGSRHNNQGVEISNAPLVFVGYGIKAPEYDWDDYAGLDMQGKIAVILVNDPGFAAPESGKFKGKAMTYYGRWSYKFEEASRQGALGAIIIHDTAPASYPWSVIENSWTGPQQDLADASQTDSRVQVEGWMTLDTAKALFDEAGLSLDTLSQEAALTPGNHDLKQSADIAFTNSATFTDSYNLVATLPGTDRADEHILFTAHWDHIGKDDSRDGDKIYNGALDNASGVAGIVEIARQFAALDAMGFKNRRSITFIATTGEEQGLLGSRYYAANPLFPIDKTIAVLNLDSTNVFGRTKDFTIVGKGQSQLEDYLVAAAKAQGREAVAEKNPASGGFFRSDHFSFAKLGVSAAFAGGGSIPLDDATATYKAEMQQKMKGCYHNVCDEYRADWDLSGALQDLALYYDVARTLANNEHRPGYYQKSEFYPLRPAN”, the “soluble on expression in E. coli” value was “not soluble”.
In the case of “MGSDKIHHHHHHCQNHVETMSITNNDAYLLQQTALSSSLGYDIVESLTVEVGPRLAGSPKDIIAVNWAMDKLTHLGFDRVYKEPVQVPIWERGEAKAKITFPVEQPLVITALGGSVATPTTGIQAKIIRFDSLEALKQANPEDVKGRIAFIDQKTERHITGEGYGKSVGGRSKGAVAAAEKGAVAIIIRSIGTDHDRMAHTGVMRYQDGVPKIPAAAMSNPDADLVTAMLRRDPNAILELQMSPKNSGFNTSYNVIAEVTGSSKPNEIVLIGAHLDSWDEGTGAIDDGAGVAIVTAAAKHIQDLPIKPARTVRVVLYAAEEIGLMGGKAYAEAHKAELPLHYIAAESDFGAGRIYQIDTKVNEGVFTKVQNILKPMTLNGVTLGSNQASAGPDISMLPAQGVPVASLRQDGRDYFDYHHTPNDTLDKIDPAALAQNVAAYAQFAYLMANSNIVLTPLASEIK”, the “soluble on expression in E. coli” value is reported as “not soluble”.
For “MGSDKIHHHHHHDAPLEQALTLAGDNRKELQQVLGHYEGDSLKHKAACFLIENMIGKGTIRYLLRESDSCYIQQEPEPDLTCITADYLIENIDLAFEVWQKYPWCKQLSFREFCRNILPYRLKQEPLDRWRSYYYTRYKMTVDSLARAGATMREIVFFFNSQHGKKYLHDAAKIPGDFSIELIEKLGGGTCDHLALNAVQLMRAVGIPLNLDILPYHGKVNGGHAYNSFTDENGKFFYFSPYEREPERNQWIAPLVQRVCYERQPEPKIGRNRWNTQLVNRLLKEVTDEYYLSDSVRLPVHTSDTVAYIATFNRGAFKVVSQGRVESNSVLHRVLPYGLLYFQMADKKGKLVPTGNPFVMTPDSIHFITPIRQTTVLNGILTYDVKRVLELGYEAYTLYYWKDGWQPVKEVTSKDSRTLDFGEVPVRSLFLVCGNTYMGRMQRPFLLEDGKPVYY”, the “soluble on expression in E. coli” value was “not soluble”.
For “MGSDKIHHHHHHENLYFQGMKIALIIENSQAAKNAVVHEALTTVAEPLGHKVFNYGMYTAEDKASLTYVMNGLLAGILLNSGAADFVVTGCGTGMGSMLAANAMPGVFCGLVIDPTDAFLFGQINDGNAISMPYSKGFGWAAELNLQDVYRKLFDGERGLGYPRERAEIMRKNRGILRELKDASCRDMLTVLKTVDQDLLRAAIAGEKFAELFYPNCKDDAIANYLRSLDA”, the “soluble on expression in E. coli” value was “soluble”.
In the case of “MGSDKIHHHHHHENLYFQGMQLLKELCSIHAPSGNEEPLKDFILEYIRSNAGSWSYQPVIYADNDLQDCIVLVFGNPRTAVFAHMDSIGFTVSYNNHLHPIGSPSAKEGYRLVGKDSNGDIEGVLKIVDEEWMLETDRLIDRGTEVTFKPDFREEGDFILTPYLDDRLGVWTALELAKTLEHGIIAFTCWEEHGGGSVAYLARWIYETFHVKQSLICDITWVTEGVEAGKGVAISMRDRMIPRKKYVNRIIELARQTDIPFQLEVEGAGASDGRELQLSPYPWDWCFIGAPEKDAHTPNECVHKKDIESMVGLYKYLMEKL”, the “soluble on expression in E. coli” value is reported as “soluble”.

From the DeepSol protein solubility set
